US11466080B2, “Methods of treating cancer using anti-LRP1 polyclonal antibodies” (Children's Medical Center Corporation, priority 2017, dated 2022)
Read-outs that look alike come from different tables or passages of the source.

Experiments:
Tsp-1 [1] = test: Western blot of Tsp-1 in lung fibroblasts treated with LN4 conditioned media; type: cell-based; conditions: WI38 cells, LN4 CM with Rac1 inhibitor
Source text: FIG. 11. Western blot analysis of Tsp-1 and β-actin expression in lung fibroblasts that were untreated (−) or treated with LN4 CM alone or in combination with STI.
FIG. 12. Western blot analysis of Tsp-1 and β-actin expression in lung fibroblasts that is were untreated (−) or treated with LN4 CM alone or in combination with Rac1 inhibitor.
Attention was then turned to the mechanism by which PC3M-LN4 cells repress Tsp-1 in the tumor microenvironment. In doing so, LN4 conditioned media (CM) was fractionated over a Cu^2+/heparin sepharose column with increasing concentrations of NaCl. The eluted fractions were used to treat lung fibroblasts and Tsp-1 induction was analyzed by western blot. […] By analyzing the protein content of the eluted fractions by tandem liquid chromatography/mass spectrometry (LC/MS), a protein was identified that was present in the active fractions of LN4 CM, but not present in the adjacent fractions or the fractions eluted with the same NaCl concentrations from PC3 CM. The identified protein was the serine protease PRSS2. […] Finally, the signaling pathway emanating from LRP1 that was mediating the PRSS2-induced repression of Tsp-1 was sought to be delineated. […]

prosaposin (PSAP) = target: T1, prosaposin (PSAP) (Homo sapiens, UniProt P07602); test: Co-immunoprecipitation of LRP1 peptides with PSAP; type: binding
T1 sequence (P07602 60-524): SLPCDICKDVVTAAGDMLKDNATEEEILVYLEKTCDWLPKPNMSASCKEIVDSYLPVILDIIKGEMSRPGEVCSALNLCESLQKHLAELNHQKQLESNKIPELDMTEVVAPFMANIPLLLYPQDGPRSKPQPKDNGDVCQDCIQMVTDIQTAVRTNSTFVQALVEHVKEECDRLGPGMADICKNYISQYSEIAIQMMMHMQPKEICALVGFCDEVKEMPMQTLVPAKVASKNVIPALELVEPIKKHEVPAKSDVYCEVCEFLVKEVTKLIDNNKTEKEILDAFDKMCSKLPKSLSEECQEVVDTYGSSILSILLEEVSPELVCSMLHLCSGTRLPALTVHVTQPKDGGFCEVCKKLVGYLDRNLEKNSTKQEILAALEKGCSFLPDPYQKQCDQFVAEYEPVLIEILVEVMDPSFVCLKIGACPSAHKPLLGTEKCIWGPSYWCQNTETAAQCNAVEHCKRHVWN
Description: (§1) FIGS. 16A-16B. Co-immunoprecipitation of LRP1 peptides with PSAP (FIG. 16A) or PRSS2 (FIG. 16B).
(§2) To map the binding sites on LRP1 that binds to prosaposin (PSAP) and/or PRSS2, peptides derived from binding domain I of LRP1 (SEQ ID NOs: 3 and 7-18) were tested for their ability to co-immunoprecipitate with PSAP or PRSS2.

PRSS2 = PRSS2 (Homo sapiens, UniProt P07478); test: Co-immunoprecipitation of LRP1 peptides with PRSS2; type: binding
Sequence of PRSS2 (P07478 16-247 limits assumed): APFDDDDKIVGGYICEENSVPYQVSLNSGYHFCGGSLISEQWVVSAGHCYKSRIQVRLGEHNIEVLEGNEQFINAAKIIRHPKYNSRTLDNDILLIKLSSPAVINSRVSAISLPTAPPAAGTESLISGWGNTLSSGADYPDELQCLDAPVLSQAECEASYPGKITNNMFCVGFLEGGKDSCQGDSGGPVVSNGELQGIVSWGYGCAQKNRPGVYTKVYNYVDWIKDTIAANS
Description: as §1, §2

p53 = test: Western blot of p53 in prostate fibroblasts treated with PC3-conditioned media; type: cell-based
Source text: (§3) FIGS. 6A-6B. Western blot analysis of: (FIG. 6A) Tsp-1 and β-actin expression in prostate fibroblasts that were untreated (−) or treated with conditioned media from PC3 cells alone or in combination with RAP, and (FIG. 6B) Tsp-1, p53 and β-actin expression in prostate fibroblasts that were untreated (−) or treated with conditioned media from PC3 cells alone or in combination with the PKC inhibitor Gδ 6983 (PKCi).
(§4) Thus, in order to determine how prosaposin was able to stimulate the expression of Tsp-1 and p53 in tumor-associated fibroblasts, prostate fibroblasts were treated with PC3-conditioned media in the presence and absence of Receptor Associate Protein (RAP), a competitive inhibitor or LRP1 binding. […] To determine whether prosaposin-mediated stimulation of Tsp-1 utilized this pathway, fibroblasts were treated with CM from PC3 cells in the presence and absence of the PKC inhibitor Gö 6983. […] Thus, it is believed that Prosaposin functions via binding to LRP1.

Tsp-1 [2] = test: Western blot of Tsp-1 in prostate fibroblasts treated with PC3-conditioned media; type: cell-based
Source text: as §3, §4

Tsp-1 [3] = test: Western blot of Tsp-1 in lung fibroblasts treated with psap peptide; type: cell-based; conditions: peptide with 25 or 50 μg rhRAP or with Y27632
Description: FIGS. 8A-8B. Western blot analysis of Tsp-1 and β-actin expression in lung fibroblasts, which were (FIG. 8A) untreated (−) or treated with psap peptide alone or in combination with 25 or 50 μg of rhRAP, and (FIG. 8B) untreated (−) or treated with psap peptide alone or with Y27632.
In order to delineate the pathway leading from LRP1 to Tsp-1 stimulation by prosaposin, two pathways that have been reported to be stimulated by LRP1 under different conditions were chosen to be examined: Rho and Rac.

## CCN(CC)CCCC(C)Nc1nc(C)cc(Nc2ccc3nc(C)cc(N)c3c2)n1 (racemic) [Rac1 inhibitor]
Tsp-1 [1]
  Tsp-1 levels under LN4 CM in presence of the substance: restored to basal levels

## Peptide 13: amino acids 151-172 of LRP1, SEQ ID NO: 3, FICGCVEGYLLQPDNRSCKAKN
Prosaposin (PSAP); listed as peptide 13
  binding to PSAP (co-immunoprecipitation): bind to both PRSS2 and PSAP
PRSS2; listed as peptide 13
  binding to PRSS2 (co-immunoprecipitation): bind to both PRSS2 and PSAP

## COc1ccc2c(c1)c(C1=C(c3c[nH]c4ccccc34)C(=O)NC1=O)cn2CCCN(C)C [Gö 6983, reference compound]
p53
  stimulation of p53 by PC3-conditioned media in the presence of the substance: abolished the stimulation of Tsp-1 and p53
Tsp-1 [2]
  stimulation of Tsp-1 by PC3-conditioned media in the presence of the substance: abolished the stimulation of Tsp-1 and p53

## Peptide 12: amino acids 140-164 of LRP1, SEQ ID NO: 18, YGTCSQLCTNTDGSFICGCVEGYLL
Prosaposin (PSAP); listed as peptide 12
  binding to PSAP (co-immunoprecipitation): bind to both PRSS2 and PSAP
PRSS2
  binding to PRSS2 (co-immunoprecipitation): Peptide 12 (amino acids 140-164 of LRP1, binds to
PRSS2; listed as peptide 12
  binding to PRSS2 (co-immunoprecipitation): bind to both PRSS2 and PSAP

## C[C@@H](N)[C@H]1CC[C@H](C(=O)Nc2ccncc2)CC1 [Peptide Y27632, Y27632, reference compound]
Tsp-1 [3]
  effect of co-treatment on stimulation of Tsp-1 by the peptide: completely abrogated

B1: RAP: Receptor Associate Protein (RAP), a competitive inhibitor or LRP1 binding (protein, UniProt P30533 35-357, looked up)
Alpha-2-macroglobulin …: YSREKNQPKPSPKRESGEEFRMEKLNQLWEKAQRLHLPPVRLAELHADLKIQERDELAWKKLKLDGLDEDGEKEARLIRNLNVILAKYGLDGKKDARQVTSNSLSGTQEDGLDDPRLEKLWHKAKTSGKFSGEELDKLWREFLHHKEKVHEYNVLLETLSRTEEIHENVISPSDLSDIKGSVLHSRHTELKEKLRSINQGLDRLRRVSHQGYSTEAEFEEPRVIDLWDLAQSANLTDKELEAFREELKHFEAKIEKHNHYQKQLEIAHEKLRHAESVGDGERVSRSREKHALLEGRTKELGYTVKKHLQDLSGRISRARHNEL
Tsp-1 [3]
  effect of co-treatment on stimulation of Tsp-1 by the peptide: blocked the stimulation of Tsp-1 in a dose-dependent fashion
Tsp-1 [2]
  stimulation of Tsp-1 by PC3-conditioned media in the presence of the substance: no longer stimulated Tsp-1
